Results published in publication PMC11585782, “The Plastidial Protein Acetyltransferase GNAT1 Forms a Complex With GNAT2, yet Their Interaction Is Dispensable for State Transitions” (Molecular & Cellular Proteomics : MCP, 2024).

Columns and labels:
[1] = biological target: His6-GNAT2 (Arabidopsis thaliana) (UniProt Q7X9V3)
[2] = biological target: His6-GNAT2 (Arabidopsis thaliana) (UniProt Q7X9V3); remark: listed apart in the source
[3] = substrate: CC(=O)SCCNC(=O)CCNC(=O)[C@H](O)C(C)(C)COP(=O)(O)OP(=O)(O)OC[C@H]1O[C@@H](n2cnc3c(N)ncnc32)[C@H](O)[C@@H]1OP(=O)(O)O; assay: purified protein; type: biochemical, Arabidopsis thaliana; conditions: acetyl-CoA 0-500 µM, 150 mM K-phosphate pH 8.0, 50 mM NaCl, 30 °C
[4] = co-substrate Nα-Ala peptide A-A-Q-G-A-K(ac)-A-A-K(Dnp)-Ahx-r-r-r 100 µM
[5] = co-substrate Nα-Val peptide V-A-Q-G-A-K(ac)-A-A-K(Dnp)-Ahx-r-r-r 100 µM

B1: His6-GNAT1 (enzyme)
chain: AAMQRKPPSYSISDEDLESRGFLLRRTTEGLNLDQLNSVFAAVGFPRRDTAKIEVALQHTDALLWVEYEKTRRPVAFARATGDGVFNAIIWDVVVDPSFQSCGLGKAVMERLIEDLQVKGICNIALYSEPRVLGFYRPLGFVSDPDGIKGMVFIRKQRNKK
acetylation of the Nα-Met peptide by His6-GNAT1 + His6-GNAT2 (1 + 1 μM), effective activity as percent of the hypothetical sum of the single activities [1]: 55% | acetylation of the Nα-Thr peptide by His6-GNAT1 + His6-GNAT2 (1 + 1 μM), effective activity as percent of the hypothetical sum of the single activities [1]: 73% | acetylation of the Nα-Val peptide by His6-GNAT1 + His6-GNAT2 (1 + 1 μM), effective activity as percent of the hypothetical sum of the single activities [1]: 76% | acetylation rate of the Nα-Ala peptide by His6-GNAT1 + His6-GNAT2 (1 + 1 μM), against around 450 nmol ∙ min^-1 expected for additive activity [1]: 250 nmol/min | lysine acetylation of the Nε-Lys peptide by His6-GNAT1 + His6-GNAT2 (1 + 1 μM), effective activity as percent of the hypothetical sum of the single activities [1]: 93% | acetylation of the Nα-Ala peptide in the presence of both GNATs, turnover as percent of the hypothetical sum of both individual activities [2]: 53%

B2: His6-GNAT1 (Arabidopsis thaliana) (protein)
chain: B1 chain
notes: N-terminal His6 (pQE-30), predicted plastid transit peptide (36 N-terminal residues) removed; expressed in E. coli SoluBL21, Ni-NTA
Km [3, 4]: 137.6 ± 9.8 µM | kcat [3, 4]: 0.00858 ± 0.00025 s⁻¹

B3: His6-GNAT2 (Arabidopsis thaliana) (protein)
chain: SGFVKNNNSTQLVEPPSIVNDEEEETEPLLPVEFTLVERNLEDGLVEEIIFSSGGEIDVYDLQGLCDKVGWPRRPLVKLAAALKNSYMVATLHSVMKSSSDSDSSEGGDGEKQQEKKLIGMARATSDHAFNATIWDVLVDPEYQGQGLGKALVEKLVRALLQRDIGNISLFADSQVVDFYQNLGFEADPEGIKGMFWYPK
notes: expressed in E. coli, purified
Km [3, 5]: 23.44 ± 0.32 µM | kcat [3, 5]: 0.02335 ± 5e-05 s⁻¹
